Source: patent publication US10501552B2, “Multivalent molecules comprising DR5-binding domains” (MacroGenics, Inc., priority 2015, dated 2019)

Experiments:
22RV1 = experiment: MTS cell proliferation assay; type: cell-based; conditions: 22RV1 (Prostate); 1 μg/ml, ±10 μg/ml αmFc; two days
Procedure: (§1) Cell lines obtained from ATCC were cultured under standard tissue culture conditions. Each cell line was plated at ˜2×10^4 cells/well (in 96-well plates), and incubated overnight in F12/DMEM media supplemented with 10% FBS. […] Cell viability was determined using Promega CellTiter 96® AQeous Non-Radioactive Cell Proliferation Assay (Cat # G5430) essentially as described in the manufacturer's instructions to assay the amount of soluble formazan produced by cellular reduction of the MTS, which is a measure of the number of viable cells in the culture. Briefly, MTS/PMS regent was added to the wells and the absorbance at 490 nm (referenced at […]) was read in a Molecular Devices ThermoMax microplate reader.
(§2) Similar studies were performed over a range of anti-DR5 mAb concentrations from ˜10^−3 nM to ˜10^2 nM. The data for COLO205 cells is provided in FIG. 13, and are representative of cell lines sensitive to the antibodies of the invention.
(§3) The cytotoxicity of tetravalent DR5-Binding Molecules of the present invention was investigated. […] His-tagged TRAIL (R&D systems) was used as a positive control.
(§4) Similar studies were performed over a range of anti-DR5 mAb concentrations from ˜10^−3 nM to ˜10^2 nM.

786O [1] = experiment: MTS cell proliferation assay; type: cell-based; conditions: 786O (Kidney); 1 μg/ml, ±10 μg/ml αmFc; two days
Procedure: as §1, §2, §3, §4

A498 = experiment: MTS cell proliferation assay; type: cell-based; conditions: A498 (Kidney); 1 μg/ml, ±10 μg/ml αmFc; two days
Procedure: as §1, §2, §3, §4

AsPC1 [2] = experiment: MTS cell proliferation assay; type: cell-based; conditions: AsPC1 (Pancreas); 1 μg/ml, ±10 μg/ml αmFc; two days
Procedure: as §1, §2, §3, §4

BT474 = experiment: MTS cell proliferation assay; type: cell-based; conditions: BT474 (Breast); 1 μg/ml, ±10 μg/ml αmFc; two days
Procedure: as §1, §2, §3, §4

CaKi2 = experiment: MTS cell proliferation assay; type: cell-based; conditions: CaKi2 (Kidney); 1 μg/ml, ±10 μg/ml αmFc; two days
Procedure: as §1, §2, §3, §4

Calu3 = experiment: MTS cell proliferation assay; type: cell-based; conditions: Calu3 (Lung); 1 μg/ml, ±10 μg/ml αmFc; two days
Procedure: as §1, §2, §3, §4

ES2 = experiment: MTS cell proliferation assay; type: cell-based; conditions: ES2 (Ovary); 1 μg/ml, ±10 μg/ml αmFc; two days
Procedure: as §1, §2, §3, §4

HPAFII = experiment: MTS cell proliferation assay; type: cell-based; conditions: HPAFII (Pancreas); 1 μg/ml, ±10 μg/ml αmFc; two days
Procedure: as §1, §2, §3, §4

HT29 = experiment: MTS cell proliferation assay; type: cell-based; conditions: HT29 (Colon); 1 μg/ml, ±10 μg/ml αmFc; two days
Procedure: as §1, §2, §3, §4

Hs700T = experiment: MTS cell proliferation assay; type: cell-based; conditions: Hs700T (Pancreas); 1 μg/ml, ±10 μg/ml αmFc; two days
Procedure: as §1, §2, §3, §4

Hs746T = experiment: MTS cell proliferation assay; type: cell-based; conditions: Hs746T (Stomach); 1 μg/ml, ±10 μg/ml αmFc; two days
Procedure: as §1, §2, §3, §4

MCF7 = experiment: MTS cell proliferation assay; type: cell-based; conditions: MCF7 (Breast); 1 μg/ml, ±10 μg/ml αmFc; two days
Procedure: as §1, §2, §3, §4

MDA-MB-175VII = experiment: MTS cell proliferation assay; type: cell-based; conditions: MDA-MB-175VII (Breast); 1 μg/ml, ±10 μg/ml αmFc; two days
Procedure: as §1, §2, §3, §4

MDA-MB-231 = experiment: MTS cell proliferation assay; type: cell-based; conditions: MDA-MB-231 (Breast); 1 μg/ml, ±10 μg/ml αmFc; two days
Procedure: as §1, §2, §3, §4

MDA-MB-361 = experiment: MTS cell proliferation assay; type: cell-based; conditions: MDA-MB-361 (Breast); 1 μg/ml, ±10 μg/ml αmFc; two days
Procedure: as §1, §2, §3, §4

NCI-N87 = experiment: MTS cell proliferation assay; type: cell-based; conditions: NCI-N87 (Stomach); 1 μg/ml, ±10 μg/ml αmFc; two days
Procedure: as §1, §2, §3, §4

PC3 = experiment: MTS cell proliferation assay; type: cell-based; conditions: PC3 (Prostate); 1 μg/ml, ±10 μg/ml αmFc; two days
Procedure: as §1, §2, §3, §4

SKOV3 = experiment: MTS cell proliferation assay; type: cell-based; conditions: SKOV3 (Ovary); 1 μg/ml, ±10 μg/ml αmFc; two days
Procedure: as §1, §2, §3, §4

SW48 = experiment: MTS cell proliferation assay; type: cell-based; conditions: SW48 (Colon); 1 μg/ml, ±10 μg/ml αmFc; two days
Procedure: as §1, §2, §3, §4

SW948 = experiment: MTS cell proliferation assay; type: cell-based; conditions: SW948 (Colon); 1 μg/ml, ±10 μg/ml αmFc; two days
Procedure: as §1, §2, §3, §4

DU145 [3] = experiment: MTS cell proliferation assay; type: cell-based, human; conditions: DU145 (Prostate); 1 μg/ml, ±10 μg/ml αmFc; two days
Procedure: as §1, §2, §3, §4

SKBR3 = experiment: MTS cell proliferation assay; type: cell-based, human; conditions: SKBR3 (Breast); 1 μg/ml, ±10 μg/ml αmFc; two days
Procedure: as §1, §2, §3, §4

SKMES = experiment: MTS cell proliferation assay; type: cell-based, human; conditions: SKMES (Lung); 1 μg/ml, ±10 μg/ml αmFc; two days
Procedure: as §1, §2, §3, §4

COLO205 = experiment: MTS cell proliferation assay; type: cell-based; conditions: COLO205 (Colon); 1 μg/ml, ±10 μg/ml αmFc; two days
Procedure: as §1, §2, §3, §4
His-tagged TRAIL (R&D systems) was used as a positive control.

DU145 [4] = experiment: […]-GLO cell viability assay with vorinostat; type: cell-based, human; conditions: DU145 (Prostate); 1 μg/ml + 10 μM Vorinostat
AsPC1 [5] = experiment: […]-GLO cell viability assay with vorinostat; type: cell-based; conditions: AsPC1 (Pancreas); 1 μg/ml + 1 μM Vorinostat
786O [6] = experiment: […]-GLO cell viability assay with vorinostat; type: cell-based; conditions: 786O (Kidney); 1 μg/ml + 1 μM Vorinostat

| Molecule | % Inhibition (Average) (22RV1) | % Inhibition (Average) (786O [1]) | % Inhibition (Average) (A498) | % Inhibition (Average) (AsPC1 [2]) | % Inhibition (Average) (BT474) | % Inhibition (Average) (CaKi2) | % Inhibition (Average) (Calu3) | % Inhibition (Average) (ES2) | % Inhibition (Average) (HPAFII) | % Inhibition (Average) (HT29) | % Inhibition (Average) (Hs700T) | % Inhibition (Average) (Hs746T) | % Inhibition (Average) (MCF7) | % Inhibition (Average) (MDA-MB-175VII) | % Inhibition (Average) (MDA-MB-231) | % Inhibition (Average) (MDA-MB-361) | % Inhibition (Average) (NCI-N87) | % Inhibition (Average) (PC3) | % Inhibition (Average) (SKOV3) | % Inhibition (Average) (SW48) | also measured |
| --- | --- | --- | --- | --- | --- | --- | --- | --- | --- | --- | --- | --- | --- | --- | --- | --- | --- | --- | --- | --- | --- |
| DR5 mAb 1: anti-human DR5 monoclonal antibody; VL SEQ ID NO:3, VH SEQ ID NO:8 (antibody, listed as Mus musculus, V domains shown, (1)..(121) Anti-DR5 Antibody mAb 1 Heavy Chain Variable Region; (1)..(111) Anti-DR5 Antibody mAb 1 Light Chain Variable Region) VH: EVKFLESGGGLVQPGGSLKLSCVASGFDFSRYWMSWVRQAPGKGLEWIGEINPDSNTINYTPSLKDKFIISRDNAKNTLYLQMTKVRSEDTALYYCTRRAYYGNPAWFAYWGQGTLVTVSS VL: DIVLTQSPASLAVSLGQRATISCRASKSVSSSGYSYMHWYQQKPGQPPKVLIFLSSNLDSGVPARFSGSGSGTDFTLNIHPVEDGDAATYYCQHSRDLPPTFGGGTKLEIK | 3.03% | 0.91% | 0.89% | 1.73% | 2.26% | 0.55% | 2.86% | 3.31% | 2.86% | 0.68% | 1.21% | 2.83% | 2.47% | 1.6% | 1.79% | 1.54% | 1.6% | 2.79% | 3.16% | 2.65% | % Inhibition (Average) (SW948): 3.53%; % Inhibition (Average) (DU145 [3]): 1.66%; % Inhibition (Average) (SKBR3): 1.97%; % Inhibition (Average) (SKMES): 1.75%; % Inhibition (Average) (COLO205): 3.5%; Net Gain (Average % Growth Inhibition) (DU145 [4]): 4.18%; Net Gain (Average % Growth Inhibition) (AsPC1 [5]): 5.11%; Net Gain (Average % Growth Inhibition) (786O [6]): 0.64% |
| DR5 mAb 2: murine anti-human DR5 monoclonal antibody; VL SEQ ID NO:13, VH SEQ ID NO:18 (antibody, listed as Mus musculus, V domains shown, (1)..(119) Anti-DR5 Antibody mAb 2 Heavy Chain Variable Region; (1)..(107) Anti-DR5 Antibody mAb 2 Light Chain Variable Region) VH: KVQLQQSGAELVKPGASVKLSCKASGYTFTEYILHWVKQKSGQGLEWIGWFYPGNNNIKYNEKFKDKATLTADKSSSTVYMELSRLTSEDSAVYFCARHEQGPGYFDYWGQGTTLTVSS VL: DIVMTQSHKFMSTSVGDRVSITCKASQDVNTAVAWYQQKPGQSPKLLIYWASTRHTGVPDRFTGSGSGTDYTLTIKSVQAEDLTLYYCQQHYITPWTFGGGTKLEIK | 3.89% | 1.79% | 1.92% | 0.13% | 2.84% | 2.64% | 2.06% | 1.88% | 2.68% | 0.87% | 0.99% | 1.25% | 3.98% | 1.09% | 4.47% | 1.98% | 0.67% | 2.19% | 2.02% | 2.44% | % Inhibition (Average) (SW948): 1.76%; % Inhibition (Average) (DU145 [3]): 2.09%; % Inhibition (Average) (SKBR3): 2.55%; % Inhibition (Average) (SKMES): 1.28%; % Inhibition (Average) (COLO205): 3.61%; Net Gain (Average % Growth Inhibition) (DU145 [4]): 4.18%; Net Gain (Average % Growth Inhibition) (AsPC1 [5]): 5.11%; Net Gain (Average % Growth Inhibition) (786O [6]): 2.33% |
